Tested on: His9
Assay: UV-vis
Conditions: 25 °C; none; pH adjusted with NaOH (1, 0.1, 0.01 M) and TFA (0.1 and 1% v/v in water); Mn(III) resting state, 15 µM. Transition from bis-aquo (species 1) to His-aquo (species 2) axial coordination. Helical fold stabilised by 40% TFE.

Mn-Mimochrome VI*a (Mn-MC6*a) (synthetic construct)
pKa: 4.0

Source: publication PMC6288486
